From patent publication US20240360226A1 (AstraZeneca / MedImmune, published 2024) come the findings set out here.

For assay [1], the target named is T1, Human cMET (recombinant, soluble monomeric) (human, UniProt P08581 25-932).
T1 construct: also called His-tagged cMET antigen
Description: ELISA, antigen coated at 1 ug/mL, anti-human Fab-HRP detection, A450. The method, then: (§1) Specificity for EGFR and cMET species paralogs and closely related family members was determined by ELISA. Briefly, antigen solutions were prepared in PBS at 1 μg/mL and 50 microliters was coated onto half area ELISA assay plates. Plates were washed and blocked with 1% BSA in PBS containing 0.005% Tween-20 (PBS-T) for one hour at room temperature. […] Wells were incubated with 50 microliters of the indicated primary antibodies diluted in PBS-T in a 1:3 dilution series, starting at 10 μg/mL and ending at 0.002 ug/mL, except for the HER4 binding mAb control, MAB1131, for which the series started at 1 μg/mL. The wells were washed 4 times in PBS-T, then 50 μl of goat anti-human Fab HRP-labeled secondary antibody, diluted 1:5000 in PBS-T, was added to each well and incubated for one hour at room temperature. […] 50 microliters of TMB stop solution was added to all wells and the absorbance was read at 450 nm on a SpectraMax M5 microplate reader. Data were analyzed in the SoftMax Pro 5 software and plotted using GraphPad Prism 7 graphing software.
(§2) To determine the species cross reactivity, ELISA assays were carried out as described above.

For assay [2], the target named is Mouse cMET (recombinant) (mouse, UniProt P16056 25-931, limits assumed). The description is as above. The method, then:
as §1, §2

For assay [3], the target named is T2, Cynomolgus monkey cMET (recombinant, soluble monomeric) (cynomolgus monkey, UniProt A0M8R7 25-932 (Papio anubis entry)).
T2 construct: also called cyno c-Met
Described as above. The method, then:
as §1, §2

Assay [4] concerns the target T3, HER3 (Homo sapiens (Human), UniProt P21860 20-643).
T3 construct: also called EGFR HER family protein HER3
The description is as above.

Assay [5] deals with T4, Human EGFR (recombinant, soluble monomeric) (human, UniProt P00533 25-645).
T4 construct: also called EGFR antigen; recombinant human EGFR
Description: SPR (Biacore T200), antibody captured on anti-human IgG, soluble monomeric antigen as analyte, 25 C. The method, then: (§3) Mouse anti-human IgG was immobilized on a CM4 sensor chip with a final surface density of ˜2000 resonance units (RUs). A reference flow cell surface was also prepared on this sensor chip using identical immobilization protocol. Test and control article antibodies were prepared at 5-20 nM in instrument buffer (HBS-EP buffer; 0.01M HEPES, pH 7.4, 0.15M NaCl, 3 mM EDTA, and 0.005% P-20), along with 3-fold serial dilutions of purified EGFR (0.27-200 nM human, 0.4-900 nM cyno, and 4-1000 nM murine) or cMET proteins (0.27 to 66 nM human and 0.27-22 nM cyno) in instrument buffer. A sequential approach was utilized for kinetic measurements. Antibodies were first injected over the capture surface, at a flow rate of 10 μL/minute. Once the binding of the captured antibody stabilized, a single concentration of the analyte was injected over both capture and reference surfaces, at a flow rate of 75 μL/minute. The resulting binding response curves yielded the association phase data. Following the injection of analyte, the flow was then switched back to instrument buffer for 15 minutes to permit the collection of dissociation phase data, followed by a 1-minute pulse of 10 mM glycine, pH 1.5, to regenerate the antibody-captured surface on the chip. Binding responses against test and control article antibodies were recorded from duplicate injections of each concentration of analyte. In addition, several buffer injections were interspersed throughout the injection series. Select buffer injections were used along with the reference cell responses to correct the raw data sets for injection artifacts and/or nonspecific binding interactions, commonly referred to as “double referencing”. Corrected binding data were globally fit to a 1:1 binding model (Biacore T200 Evaluation software 2.0, GE Healthcare, Pittsburgh, PA).
(§4) Kinetic measurements to soluble monomeric forms of EGFR and cMET were performed using a BIACore instrument.
(In general: In SPR one partner is held on a chip, and binding of the other changes the refractive index at the surface.)

For assay [6], the target named is T5, Mouse EGFR (recombinant, soluble monomeric) (mouse, UniProt Q01279 25-647).
T5 construct: also called murine EGFR
Described as above. As to the method:
as §3, §4

Assay [7] has as its target T6, Cynomolgus monkey EGFR (recombinant, soluble monomeric) (cynomolgus monkey, UniProt P55245 25-645 (rhesus entry)).
T6 construct: also called cyno EGFR
The assay is described as above. The method, then:
as §3, §4

The target in assay [8] is T7, HER4 (Homo sapiens (Human), UniProt Q15303 26-651).
T7 construct: also called EGFR HER family protein HER4
T7 sequence: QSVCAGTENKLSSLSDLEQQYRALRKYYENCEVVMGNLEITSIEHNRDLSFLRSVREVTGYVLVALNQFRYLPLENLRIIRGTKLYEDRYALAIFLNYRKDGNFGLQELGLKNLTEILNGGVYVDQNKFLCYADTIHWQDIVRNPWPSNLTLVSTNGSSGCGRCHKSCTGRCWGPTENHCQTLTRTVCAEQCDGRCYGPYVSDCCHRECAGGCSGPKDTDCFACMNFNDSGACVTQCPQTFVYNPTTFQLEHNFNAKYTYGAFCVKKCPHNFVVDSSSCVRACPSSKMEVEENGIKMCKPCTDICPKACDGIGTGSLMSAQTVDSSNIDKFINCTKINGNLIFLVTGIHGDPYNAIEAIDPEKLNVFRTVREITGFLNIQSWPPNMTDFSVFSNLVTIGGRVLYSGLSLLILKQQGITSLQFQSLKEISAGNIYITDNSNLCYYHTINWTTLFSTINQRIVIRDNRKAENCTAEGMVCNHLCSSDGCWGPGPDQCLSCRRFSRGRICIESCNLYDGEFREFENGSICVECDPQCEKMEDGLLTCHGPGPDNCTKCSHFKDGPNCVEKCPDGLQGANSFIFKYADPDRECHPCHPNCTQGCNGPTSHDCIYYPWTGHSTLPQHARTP
Description: ELISA, antigen coated at 1 ug/mL, anti-human Fab-HRP detection, A450. Background: An ELISA detects its analyte on a solid surface through an enzyme-linked reagent.

Assay [9] addresses T8, HER2 (Homo sapiens (Human), UniProt P04626 23-652).
T8 construct: also called EGFR HER family protein HER2
Described as above.

The target in assay [10] is T1, Human cMET (recombinant, soluble …). Description: SPR (Biacore T200), antibody captured on anti-human IgG, soluble monomeric antigen as analyte, 25 C. As to the method: as §3, §4
Assay [11] deals with T2, Cynomolgus monkey cMET (recombinant, …). Described as above. As to the method: as §3, §4
The target of assay [12] is EGFR and c-MET co-expressed on HCC827 cells. In words: confocal fluorescence microscopy, AF647-labelled antibody pre-bound to HCC827 cells, T=0.
Assay [13] concerns the target EGFR and c-MET co-expressed on NCI-H1975 cells. In words: confocal fluorescence microscopy, AF647-labelled antibody pre-bound to H1975 cells, T=0.
Assay [14] addresses EGFR and c-MET co-expressed on HCC827 cells. In words: confocal fluorescence microscopy, AF647-labelled antibody pre-bound to cells, T=0.
Assay [15] has as its target c-MET on human tumour cells (NCI-H1975, HCC827) (human) (UniProt P08581). Description: cell-based or functional assay.

As a reminder, the Kd is the concentration at which binding is half-saturated. In general, koff refers to a measure of how fast the partners let go of each other. By kon is commonly meant the second-order rate constant of association.

T1 sequence (P08581 25-932): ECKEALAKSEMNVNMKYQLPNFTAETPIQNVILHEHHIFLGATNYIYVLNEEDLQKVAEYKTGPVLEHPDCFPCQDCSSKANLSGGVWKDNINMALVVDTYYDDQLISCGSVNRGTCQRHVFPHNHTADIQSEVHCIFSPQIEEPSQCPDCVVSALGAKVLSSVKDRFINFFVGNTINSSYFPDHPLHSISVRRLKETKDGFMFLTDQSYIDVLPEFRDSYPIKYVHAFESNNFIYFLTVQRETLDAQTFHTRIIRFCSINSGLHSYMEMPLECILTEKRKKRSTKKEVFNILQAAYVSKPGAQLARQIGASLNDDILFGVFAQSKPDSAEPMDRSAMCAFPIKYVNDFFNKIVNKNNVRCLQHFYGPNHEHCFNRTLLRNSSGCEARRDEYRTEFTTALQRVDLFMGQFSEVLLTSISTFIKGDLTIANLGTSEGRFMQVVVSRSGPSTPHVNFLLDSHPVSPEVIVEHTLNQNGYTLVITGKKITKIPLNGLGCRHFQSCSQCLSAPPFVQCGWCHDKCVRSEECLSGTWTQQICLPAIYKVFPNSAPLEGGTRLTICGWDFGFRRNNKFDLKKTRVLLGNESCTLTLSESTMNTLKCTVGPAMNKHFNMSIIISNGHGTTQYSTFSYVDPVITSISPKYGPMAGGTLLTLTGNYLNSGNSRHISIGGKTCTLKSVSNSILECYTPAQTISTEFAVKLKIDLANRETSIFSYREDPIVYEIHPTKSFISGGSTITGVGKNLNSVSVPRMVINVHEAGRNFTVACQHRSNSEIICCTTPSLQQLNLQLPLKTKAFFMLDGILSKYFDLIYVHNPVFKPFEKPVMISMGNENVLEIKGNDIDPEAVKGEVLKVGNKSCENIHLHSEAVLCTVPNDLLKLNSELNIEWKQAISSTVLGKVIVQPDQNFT
T2 sequence (A0M8R7 25-932 S170N/I621T): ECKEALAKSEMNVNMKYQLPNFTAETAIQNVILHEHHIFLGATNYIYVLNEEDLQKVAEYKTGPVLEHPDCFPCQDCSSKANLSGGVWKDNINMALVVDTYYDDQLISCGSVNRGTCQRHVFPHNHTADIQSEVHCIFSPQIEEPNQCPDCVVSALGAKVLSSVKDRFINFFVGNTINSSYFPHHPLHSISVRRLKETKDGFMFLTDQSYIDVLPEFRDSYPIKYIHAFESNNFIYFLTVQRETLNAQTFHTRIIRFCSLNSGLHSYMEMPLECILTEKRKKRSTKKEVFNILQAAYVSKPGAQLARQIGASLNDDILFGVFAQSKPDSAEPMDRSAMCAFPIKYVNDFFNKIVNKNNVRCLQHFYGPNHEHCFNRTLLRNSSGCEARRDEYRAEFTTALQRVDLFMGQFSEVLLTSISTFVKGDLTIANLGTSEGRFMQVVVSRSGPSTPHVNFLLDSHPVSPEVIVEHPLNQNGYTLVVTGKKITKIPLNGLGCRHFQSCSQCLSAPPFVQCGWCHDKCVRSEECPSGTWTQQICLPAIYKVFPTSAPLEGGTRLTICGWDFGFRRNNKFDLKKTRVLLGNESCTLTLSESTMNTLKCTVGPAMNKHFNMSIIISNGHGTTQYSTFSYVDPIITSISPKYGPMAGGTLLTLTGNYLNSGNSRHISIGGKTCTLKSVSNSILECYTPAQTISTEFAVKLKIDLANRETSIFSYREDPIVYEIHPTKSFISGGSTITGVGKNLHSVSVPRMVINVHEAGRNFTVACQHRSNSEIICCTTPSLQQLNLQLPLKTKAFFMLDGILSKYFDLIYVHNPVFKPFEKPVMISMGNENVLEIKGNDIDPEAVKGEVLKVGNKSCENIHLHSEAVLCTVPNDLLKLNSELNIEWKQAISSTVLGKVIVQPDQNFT
Sequence of Mouse cMET (recombinant) (P16056 25-931 limits assumed): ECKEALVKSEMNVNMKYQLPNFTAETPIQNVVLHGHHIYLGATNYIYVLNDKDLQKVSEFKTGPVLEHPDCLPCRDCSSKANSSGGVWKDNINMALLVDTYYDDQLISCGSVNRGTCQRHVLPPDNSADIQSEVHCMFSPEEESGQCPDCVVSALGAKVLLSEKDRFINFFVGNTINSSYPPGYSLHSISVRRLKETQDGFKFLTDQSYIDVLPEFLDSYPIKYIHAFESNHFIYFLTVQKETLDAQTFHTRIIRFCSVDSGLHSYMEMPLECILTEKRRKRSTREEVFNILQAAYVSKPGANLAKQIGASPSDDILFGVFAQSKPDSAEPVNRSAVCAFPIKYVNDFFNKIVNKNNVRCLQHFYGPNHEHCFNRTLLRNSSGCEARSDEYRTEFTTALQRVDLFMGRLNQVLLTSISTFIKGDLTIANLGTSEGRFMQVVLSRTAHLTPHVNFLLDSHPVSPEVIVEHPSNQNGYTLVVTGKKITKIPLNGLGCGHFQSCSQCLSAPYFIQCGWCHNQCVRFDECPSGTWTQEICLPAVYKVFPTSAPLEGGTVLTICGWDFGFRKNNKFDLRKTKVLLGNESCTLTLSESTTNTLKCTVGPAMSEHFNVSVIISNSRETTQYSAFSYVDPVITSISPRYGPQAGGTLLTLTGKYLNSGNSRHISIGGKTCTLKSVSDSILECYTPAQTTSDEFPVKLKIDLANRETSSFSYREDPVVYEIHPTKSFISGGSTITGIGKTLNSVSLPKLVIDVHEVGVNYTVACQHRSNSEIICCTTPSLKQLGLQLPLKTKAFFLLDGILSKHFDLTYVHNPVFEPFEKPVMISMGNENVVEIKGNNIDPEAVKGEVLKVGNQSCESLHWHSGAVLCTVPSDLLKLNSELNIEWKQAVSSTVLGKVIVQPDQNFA
Sequence of c-MET on human tumour cells (NCI-H1975, HCC827) (human) (P08581 25-1390): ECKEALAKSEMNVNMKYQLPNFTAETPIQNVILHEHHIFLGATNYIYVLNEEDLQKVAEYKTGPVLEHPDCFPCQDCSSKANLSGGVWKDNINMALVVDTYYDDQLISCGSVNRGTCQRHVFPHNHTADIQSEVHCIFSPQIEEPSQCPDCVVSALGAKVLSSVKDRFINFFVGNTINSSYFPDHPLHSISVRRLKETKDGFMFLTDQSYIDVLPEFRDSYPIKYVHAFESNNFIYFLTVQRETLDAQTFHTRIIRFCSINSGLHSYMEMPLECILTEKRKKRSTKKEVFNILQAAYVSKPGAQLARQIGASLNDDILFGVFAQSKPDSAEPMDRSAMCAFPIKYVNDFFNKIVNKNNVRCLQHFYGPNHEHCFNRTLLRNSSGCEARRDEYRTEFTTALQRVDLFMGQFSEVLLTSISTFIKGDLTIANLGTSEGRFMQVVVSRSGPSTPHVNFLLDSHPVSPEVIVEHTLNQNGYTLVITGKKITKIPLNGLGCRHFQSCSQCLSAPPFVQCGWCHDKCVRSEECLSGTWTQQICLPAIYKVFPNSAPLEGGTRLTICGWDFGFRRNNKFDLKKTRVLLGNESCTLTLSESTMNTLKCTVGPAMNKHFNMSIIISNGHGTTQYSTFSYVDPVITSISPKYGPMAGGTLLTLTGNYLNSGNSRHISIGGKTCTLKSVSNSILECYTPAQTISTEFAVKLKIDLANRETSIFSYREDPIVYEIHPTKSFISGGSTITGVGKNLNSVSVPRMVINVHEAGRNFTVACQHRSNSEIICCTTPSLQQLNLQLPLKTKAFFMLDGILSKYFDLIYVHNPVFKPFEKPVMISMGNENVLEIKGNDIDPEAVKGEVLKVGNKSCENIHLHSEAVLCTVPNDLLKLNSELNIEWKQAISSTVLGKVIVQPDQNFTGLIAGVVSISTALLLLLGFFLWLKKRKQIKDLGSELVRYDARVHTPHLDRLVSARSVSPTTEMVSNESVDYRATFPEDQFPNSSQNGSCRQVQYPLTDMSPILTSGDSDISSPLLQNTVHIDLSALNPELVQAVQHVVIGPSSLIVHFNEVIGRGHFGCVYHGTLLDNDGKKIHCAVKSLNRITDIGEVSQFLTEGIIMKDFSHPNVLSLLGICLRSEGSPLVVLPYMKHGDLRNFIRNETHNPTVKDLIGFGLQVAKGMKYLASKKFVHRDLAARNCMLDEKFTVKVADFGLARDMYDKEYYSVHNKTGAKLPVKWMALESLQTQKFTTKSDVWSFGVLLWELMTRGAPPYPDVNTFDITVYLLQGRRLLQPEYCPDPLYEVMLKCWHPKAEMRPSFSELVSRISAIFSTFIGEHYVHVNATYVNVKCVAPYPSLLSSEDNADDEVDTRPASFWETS

B1: QD6 IgG (antibody, V domains shown)
VH: QVQLVQSGAEVKKPGSSVKVSCKASGGTFSDNDFSWVRQAPGQGLEWMGAIVAVVRTETYAQKFQDRVKITADISTRTTYMELSSLRSEDTAVYYCARRLMSAISGPGAPLLMWGQGTLVTVSS
VL: QSALTQPRSVSGSPGQSVTISCTGTSSDVGGYNYVSWYQQHPGKAPKLMIYDVSERPSGVPDRFSGSKSGNTASLTISGLQAEDEADYYCFSYTSSDTLEIFGGGTKLTVL
notes: Only variable domains are tied to the parental IgG; also called QD06; anti-EGFR antibody clone QD6
With B1, the binding result in [1], in assay [2], in [3], in assay [4], in assay [8] and in assay [9] was “no binding (tested: 10 ug/ml)” each time. Further, the Kd in [5] was 2 nM; in [6] it was 4.4 nM; in [7], 2.5 nM. In addition, the figures for the koff in assay [5], in assay [6] and in assay [7] were 0.000292 s⁻¹, 0.000735 s⁻¹ and 0.000288 s⁻¹, respectively. In addition, the values for the kon in [5], in assay [6] and in assay [7] were 148000 M⁻¹ s⁻¹, 167000 M⁻¹ s⁻¹ and 114000 M⁻¹ s⁻¹, respectively.

B2: RAA22/B09-57 DuetMab (bispecific antibody, human IgG1, kappa, lambda)
heavy 1: QVQLVQSGAEVKKPGSSVKVSCKASGGTFSDNDFSWVRQAPGQGLEWMGAIVAVFRTETYAQKFQDRVKITADISTRTTYMELSSLRSEDTAVYYCARRLMSAISGPGAPLLMWGQGTLVTVSSASTKGPSVFPLAPSSKSTSGGTAALGCLVKDYFPEPVTVSWNSGALTSGVHTFPAVLQSSGLYSLSSVVTVPSSSLGTQTYICNVNHKPSNTKVDKRVEPKSCDKTHTCPPCPAPELLGGPSCVFLFPPKPKDTLMISRTPEVTCVVVDVSHEDPEVKFNWYVDGVEVHNAKTKPREEQYNSTYRVVSVLTVLHQDWLNGKEYKCKVSNKALPAPIEKTISKAKGQPREPQVCTLPPSREEMTKNQVSLSCAVKGFYPSDIAVEWESNGQPENNYKTTPPVLDSDGSFFLVSKLTVDKSRWQQGNVFSCSVMHEALHNHYTQKSLSLSPGK
light 1: QSALTQPRSVSGSPGQSVTISCTGTSSDVGGYNYVSWYQQHPGKAPKLMIYDVSKRPSGVPDRFSGSKSGNTASLTISGLQAEDEADYYCSSYTSSDTLEIFGGGTKLTVLGQPKAAPSVTLFPPSSEELQANKATLVCLISDFYPGAVTVAWKADSSPVKAGVETTTPSKQSNNKYAASSYLSLTPEQWKSHRSYSCQVTHEGSTVEKTVAPTECS
heavy 2: QVQLVQSGAEVKKPGASVKVSCKASGYTFTDYYIHWVRQATGQGLEWMGWMNPNSGNTGYAQKFQGRVTMTRDTSISTAYMELSSLRSEDTAVYYCARGQGYTHSWGQGTMVTVSSASTKGPSVCPLAPSSKSTSGGTAALGCLVKDYFPEPVTVSWNSGALTSGVHTFPAVLQSSGLYSLSSVVTVPSSSLGTQTYICNVNHKPSNTKVDKRVEPKSVDKTHTCPPCPAPELLGGPSCVFLFPPKPKDTLMISRTPEVTCVVVDVSHEDPEVKFNWYVDGVEVHNAKTKPREEQYNSTYRVVSVLTVLHQDWLNGKEYKCKVSNKALPAPIEKTISKAKGQPREPQVYTLPPCREEMTKNQVSLWCLVKGFYPSDIAVEWESNGQPENNYKTTPPVLDSDGSFFLYSKLTVDKSRWQQGNVFSCSVMHEALHNHYTQKSLSLSPG
light 2: DIQMTQSPSTLSASVGDRVTITCRASEGIYHWLAWYQQKPGKAPKLLIYKASSLASGVPSRFSGSGSGTEFTLTISSLQPDDFATYYCQQYSNYPPTFGGGTKLEIKRTVAAPSVFIFPPCDEQLKSGTASVVCLLNNFYPREAKVQWKVDNALQSGNSQESVTEQDSKDSTYSLSSTLTLSKADYEKHKVYACEVTHQGLSSPVTKSFNRGEV
notes: Labelled with AlexaFluor-647 in the microscopy experiments; also called RAA22/B09-Maia; bispecific EGFR/cMET DuetMAb
For B2, the binding result in [2], in [4], in assay [8] and in assay [9] was “no binding (tested: 10 ug/ml)” each time. For the same molecule, the Kd in assay [5] turned out to be 45 nM; in assay [6] it was 575 nM; in assay [10], 2.2 nM; in assay [7] it was 197 nM; in assay [11], 2.2 nM. The koff in assay [5] is 0.00201 s⁻¹; in assay [6], 0.0206 s⁻¹; in assay [10], 0.000986 s⁻¹; in [7] it was 0.00548 s⁻¹; in [11] it was 0.00212 s⁻¹. The kon is 44700 M⁻¹ s⁻¹ in [5]; 35400 M⁻¹ s⁻¹ in [6]; 443000 M⁻¹ s⁻¹ in assay [10]; 27800 M⁻¹ s⁻¹ in assay [7]; 974000 M⁻¹ s⁻¹ in assay [11]. Also, the figures for the MFI in assay [12] and in assay [13] were 3.1e+07 MFI and 3.5e+06 MFI, respectively. For the same molecule, the fold higher binding than on H1975 cells in assay [14] turned out to be 8.9 fold.

B3: B09/R347 (bispecific antibody, part only; not given: non-binding arm and constant regions, V domains shown, not shown: another chain or arm of the molecule; a dimerising Fc or GST; small tags and cut ends)
VH: QVQLVQSGAEVKKPGASVKVSCKASGYTFTDYYIHWVRQATGQGLEWMGWMNPNSGNTGYAQKFQGRVTMTRDTSISTAYMELSSLRSEDTAVYYCARGQGYTHSWGQGTMVTVSS
VL: DIQMTQSPSTLSASVGDRVTITCRASEGIYHWLAWYQQKPGKAPKLLIYKASSLASGVPSRFSGSGSGTEFTLTISSLQPDDFATYYCQQYSNYPPTFGGGTKLEIK
modifications: AlexaFluor-647 or pHAb dye label on amines; positions not defined
As for B3, in assay [15], the cytoplasmic intensity of AF647-labelled antibody in H1975 cells, fold higher for RAA22/B09 DuetMab than for B09-IgG (FIG. 7B) was 4.7 fold.
